Values of other authors as cited in patent publication US7625865B2, “Insulin highly respirable microparticles” (Universita Degli Studi Di Parma, priority 2004, dated 2009).

Columns and labels:
[1] = nebulization versus direct instillation of an acidic insulin solution
[2] = intratracheal instillation
[3] = rats

For insulin, the “absorbed fraction, aerosolized insulin versus instilled insulin” value [1] is given as 10 fold, the “bioavailability of formulation at pH 3 versus pH 7” value [2] is given as “greater bioavalability” and the absorption of insulin [3] is given as “rapid absorption”.
